T1: Haa1(DBD)-His6 (Saccharomyces cerevisiae, UniProt Q12753 1-123)
T1 sequence: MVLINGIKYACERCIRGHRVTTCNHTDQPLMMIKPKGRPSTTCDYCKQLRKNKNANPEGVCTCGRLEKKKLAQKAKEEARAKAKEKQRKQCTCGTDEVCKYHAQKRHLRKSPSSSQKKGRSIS


biological target: T1, Haa1(DBD)-His6; assay: SPR

Binder | Kd [nM]
TPO3 wild-type HRE (GGCGAGGGG) (dsDNA) DNA 1: TTCTCTGTGCTTGGCGAGGGGTTTACTGGAGCCCAATC DNA 2: GATTGGGCTCCAGTAAACCCCTCGCCAAGCACAGAGAA | 2 ± 0.2
HRE mutant 6 (GGCGAGGCG) (dsDNA) DNA 1: TTCTCTGTGCTTGGCGAGGCGTTTACTGGAGCCCAATC DNA 2: GATTGGGCTCCAGTAAACGCCTCGCCAAGCACAGAGAA | 38.5 ± 4.5
HRE mutant 2 (GGCCAGGGG) (dsDNA) DNA 1: TTCTCTGTGCTTGGCCAGGGGTTTACTGGAGCCCAATC DNA 2: GATTGGGCTCCAGTAAACCCCTGGCCAAGCACAGAGAA | 4.3 ± 0.3
HRE mutant 4 (GGCGAAGGG) (dsDNA) DNA 1: TTCTCTGTGCTTGGCGAAGGGTTTACTGGAGCCCAATC DNA 2: GATTGGGCTCCAGTAAACCCTTCGCCAAGCACAGAGAA | 396 ± 51.1
HRE mutant 8 (GGCGAGGGA) (dsDNA) DNA 1: TTCTCTGTGCTTGGCGAGGGATTTACTGGAGCCCAATC DNA 2: GATTGGGCTCCAGTAAATCCCTCGCCAAGCACAGAGAA | 119 ± 3.6
HRE mutant 7 (GGCGAGGAG) (dsDNA) DNA 1: TTCTCTGTGCTTGGCGAGGAGTTTACTGGAGCCCAATC DNA 2: GATTGGGCTCCAGTAAACTCCTCGCCAAGCACAGAGAA | 6780 ± 865
HRE mutant 1 (AGCGAGGGG) (dsDNA) DNA 1: TTCTCTGTGCTTAGCGAGGGGTTTACTGGAGCCCAATC DNA 2: GATTGGGCTCCAGTAAACCCCTCGCTAAGCACAGAGAA | 1.9 ± 0.3
HRE mutant 3 (GGCGCGGGG) (dsDNA) DNA 1: TTCTCTGTGCTTGGCGCGGGGTTTACTGGAGCCCAATC DNA 2: GATTGGGCTCCAGTAAACCCCGCGCCAAGCACAGAGAA | 13.6 ± 0.9
HRE mutant 5 (GGCGAGAGG) (dsDNA) DNA 1: TTCTCTGTGCTTGGCGAGAGGTTTACTGGAGCCCAATC DNA 2: GATTGGGCTCCAGTAAACCTCTCGCCAAGCACAGAGAA | 21.4 ± 6.1
